Bridges are numbered along the chain shown (N, C = ends). Roman numbers before positions name the chains, in order. Where no end group is shown, it is not given here. [ ]: non-standard residue; d: D form. fluorescein = fluorescein fluorescent label attached to the peptide; βAla = NCCC(=O)O
What was measured:
c-Met [1] = target: T1, c-Met (Homo sapiens, UniProt P08581); test: Activity of dimeric peptide by ELISA (c-Met phosphorylation level in EHMES-1 cells); type: cell-based; conditions: for Activity (c-Met phosphorylation level by ELISA): Table 12, EHMES-1 cells, 10 minutes stimulation; for c-Met phosphorylation: Table 13
T1 construct: endogenous in cells; host or cells: EHMES-1 (human mesothelioma)
Description: Each dimeric peptide was added to human EHMES-1 cells and the mixture was incubated for 10 minutes to stimulate the cells.
As a control experiment, a recombinant human HGF protein was added and the mixture was incubated for 10 minutes to stimulate cells.
A phosphorylation level of c-Met was quantitatively analyzed using ELISA.

human Hcc-827 cells = test: Cell growth of Iressa-inhibited Hcc-827 cells (MTS assay); type: cell-based; conditions: Table 13, Hcc-827 cells inhibited by Iressa
Description: Dimeric peptides were added to human Hcc-827 cells whose cell growth was inhibited by the addition of Iressa and the resulting mixture was cultured to activate the cell growth ability via a c-Met signaling pathway. The cell count of the thus-cultured cells was quantitatively determined by the assay using MTS (3-(4,5-dimethylthiazol-2-yl)-5-(3carboxymethoxyphenyl)-2-(4-sulphophenyl)-2H-tetrazolium, inner salt).

c-Met-Fc = c-Met-Fc (Homo sapiens, UniProt P08581); test: Binding ability by surface plasmon resonance (SPR, Biacore); conditions: Table 11, monomer and dimeric peptides
Description: Binding ability of the thioether macrocyclic peptide was evaluated by SPR measurement using Biacore (GE Healthcare).
As a sensor chip, Sensor Chip CM5 was used and an anti-IgG antibody was immobilized on a measurement lane and a control lane by using Human Antibody Capture Kit.
On the measurement lane was immobilized c-Met-Fc, while on the control lane was immobilized Fc protein.
As a running buffer, HBS-EP+ buffer containing 0.1% DMSO was used and a dissociation constant of the thioether macrocyclic peptide was calculated at 5 different concentrations by using the single-kinetics method.

[2] = tested on: human c-Met expressing cells (human SNU-638 cells); test: Localization of fluorescein-modified peptides on c-Met expressing cells (confocal microscopy); type: cell-based; conditions: 1 μM fluorescein peptide, FIG. 2A
Description: To human c-Met expressing cells (human SNU-638 cells) or human c-Met non-expressing cells (human SNU-216 cells) cultured on a glass-bottom dish were added a RPMI1640 medium containing 1 mg/L of Hoechst 33342, a nuclear staining reagent, an anti-human c-Met antibody, and 1 uM of L5-2-fluorescein, D4-3-fluorescein, D5-4-fluorescein, D4-3NMe-fluorescein, or D4-3scr-fluorescein and the resulting mixture was incubated in 5% CO2 at 37° C. for 5 minutes. Then, a RPMI1640 medium containing an HRP-anti-rat secondary antibody and 1 μM of L5-2-fluorescein, D4-3-fluorescein, D5-4-fluorescein, D4-3NMe-fluorescein, or D4-3scr-fluorescein was added and the resulting mixture was incubated in 5% CO2 at 37° C. for 5 minutes.
The cells were washed three times with a D-MEM medium and were microscopically observed in a new RPMI1640 medium. The localization of the peptide was observed using a confocal fluorescence microscope for the microscopic observation.

[3] = tested on: c-Met, Gab1, Akt, and Erk proteins; test: Activity of dimeric peptide by western blotting in EHMES-1 cells; type: cell-based, human; conditions: 10 minutes, FIG. 5
Description: (§1) The optimum concentration of each of the dimeric peptides was added to cultured EHMES-1 cells derived from human mesothelioma and the resulting mixture was incubated for 10 minutes to stimulate the cells. As a control experiment, 2 nM of a recombinant human HGF protein was added, followed by incubation for 10 minutes.
The cells were lysed and the resulting lysate was electrophoresed using a 10% modified polyacrylamide gel. After transcription of the protein thus separated to an Immobilon-P PVDF membrane (Millipore) and blocking with PVDF Blocking Reagent for Can Get Signal (TOYOBO), a primary antibody reaction of it was performed overnight at 4° C. in Can Get Signal Solution 1 (TOYOBO). As the antibody, anti-Met (Millipore, EP1454Y), anti-Phospho-Met Tyr1234/1235 (Cell Signaling Technology, D26), anti-Phospho-Met Tyr1349 (Millipore, 07-808), anti-Akt (Cell Signaling Technology, 11E7), anti-Phospho-Akt Thr308 (Cell Signaling Technology, D25E6), anti-Erk1/2 (Cell Signaling Technology, 137F5), anti-Phospho-Erk1/2 Thr202/Tyr204 (Cell Signaling Technology, D13.14.4E), anti-Gab1 (Cell Signaling Technology), or anti-Phospho-Gab1 Tyr 627 (Cell Signaling Technology, C32H2) was used. Then, a secondary antibody reaction was performed at room temperature for one hour in Can Get Signal Solution 2 (TOYOBO) by using an anti-rabbit antibody HRP conjugate. […]

c-Met [4] = target: T1, c-Met; test: Activity of dimeric peptide by Phospho-RTK array in EHMES-1 cells; type: cell-based; conditions: optimum concentration, 10 minutes, FIG. 4
Description: as §1, with “each” for “each of the”, “peptide” for “peptides”, “nM” for “nM of a”
The resulting cells were lyzed and the lysate thus obtained was analyzed using Phospho-RTK array (R&D Systems) to evaluate whether or not the c-Met of the cells was phosphorylated.

human HuCCT1 cells = test: Cell migration of HuCCT1 cells on pore-containing plate; type: cell-based; conditions: Table 13
Description: In addition, human HuCCT1 cells were seeded on a pore-containing plate and cultured in a medium mixed with each of the dimeric peptides to evaluate activation of cell migration ability.

Sequence of c-Met-Fc (P08581 with tags, fused parts or gaps limits assumed): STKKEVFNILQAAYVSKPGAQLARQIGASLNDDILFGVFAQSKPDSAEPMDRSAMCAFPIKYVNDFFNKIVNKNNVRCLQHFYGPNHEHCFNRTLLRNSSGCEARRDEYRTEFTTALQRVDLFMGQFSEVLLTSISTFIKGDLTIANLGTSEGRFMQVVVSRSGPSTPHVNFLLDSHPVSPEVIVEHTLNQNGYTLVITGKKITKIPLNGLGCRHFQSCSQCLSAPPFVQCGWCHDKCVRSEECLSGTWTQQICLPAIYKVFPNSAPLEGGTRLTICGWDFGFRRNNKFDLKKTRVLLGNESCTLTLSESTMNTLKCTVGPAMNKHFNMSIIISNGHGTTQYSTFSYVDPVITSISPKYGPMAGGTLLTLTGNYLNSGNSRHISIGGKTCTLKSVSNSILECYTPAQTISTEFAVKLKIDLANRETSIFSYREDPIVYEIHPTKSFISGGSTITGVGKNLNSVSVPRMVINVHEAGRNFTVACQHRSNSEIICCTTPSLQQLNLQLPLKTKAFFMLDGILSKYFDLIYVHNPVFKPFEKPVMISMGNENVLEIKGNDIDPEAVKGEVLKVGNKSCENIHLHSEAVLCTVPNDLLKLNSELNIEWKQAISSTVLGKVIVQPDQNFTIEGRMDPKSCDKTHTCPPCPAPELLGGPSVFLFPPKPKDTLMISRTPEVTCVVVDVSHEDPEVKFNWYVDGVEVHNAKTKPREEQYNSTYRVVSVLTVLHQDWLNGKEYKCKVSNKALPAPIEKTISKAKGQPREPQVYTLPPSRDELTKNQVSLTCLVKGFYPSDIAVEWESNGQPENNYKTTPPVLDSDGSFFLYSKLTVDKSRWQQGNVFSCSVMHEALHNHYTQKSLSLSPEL
Sequence of c-Met-Fc (P08581 25-307 limits assumed): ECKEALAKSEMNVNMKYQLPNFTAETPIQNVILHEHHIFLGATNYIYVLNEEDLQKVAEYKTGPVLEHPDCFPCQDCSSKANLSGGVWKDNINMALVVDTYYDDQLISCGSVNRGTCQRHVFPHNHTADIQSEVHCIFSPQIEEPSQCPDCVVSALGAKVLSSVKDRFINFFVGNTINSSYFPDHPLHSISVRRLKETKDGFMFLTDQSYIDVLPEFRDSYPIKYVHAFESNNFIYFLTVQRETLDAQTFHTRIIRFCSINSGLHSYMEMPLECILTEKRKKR
T1 sequence (P08581 25-1390): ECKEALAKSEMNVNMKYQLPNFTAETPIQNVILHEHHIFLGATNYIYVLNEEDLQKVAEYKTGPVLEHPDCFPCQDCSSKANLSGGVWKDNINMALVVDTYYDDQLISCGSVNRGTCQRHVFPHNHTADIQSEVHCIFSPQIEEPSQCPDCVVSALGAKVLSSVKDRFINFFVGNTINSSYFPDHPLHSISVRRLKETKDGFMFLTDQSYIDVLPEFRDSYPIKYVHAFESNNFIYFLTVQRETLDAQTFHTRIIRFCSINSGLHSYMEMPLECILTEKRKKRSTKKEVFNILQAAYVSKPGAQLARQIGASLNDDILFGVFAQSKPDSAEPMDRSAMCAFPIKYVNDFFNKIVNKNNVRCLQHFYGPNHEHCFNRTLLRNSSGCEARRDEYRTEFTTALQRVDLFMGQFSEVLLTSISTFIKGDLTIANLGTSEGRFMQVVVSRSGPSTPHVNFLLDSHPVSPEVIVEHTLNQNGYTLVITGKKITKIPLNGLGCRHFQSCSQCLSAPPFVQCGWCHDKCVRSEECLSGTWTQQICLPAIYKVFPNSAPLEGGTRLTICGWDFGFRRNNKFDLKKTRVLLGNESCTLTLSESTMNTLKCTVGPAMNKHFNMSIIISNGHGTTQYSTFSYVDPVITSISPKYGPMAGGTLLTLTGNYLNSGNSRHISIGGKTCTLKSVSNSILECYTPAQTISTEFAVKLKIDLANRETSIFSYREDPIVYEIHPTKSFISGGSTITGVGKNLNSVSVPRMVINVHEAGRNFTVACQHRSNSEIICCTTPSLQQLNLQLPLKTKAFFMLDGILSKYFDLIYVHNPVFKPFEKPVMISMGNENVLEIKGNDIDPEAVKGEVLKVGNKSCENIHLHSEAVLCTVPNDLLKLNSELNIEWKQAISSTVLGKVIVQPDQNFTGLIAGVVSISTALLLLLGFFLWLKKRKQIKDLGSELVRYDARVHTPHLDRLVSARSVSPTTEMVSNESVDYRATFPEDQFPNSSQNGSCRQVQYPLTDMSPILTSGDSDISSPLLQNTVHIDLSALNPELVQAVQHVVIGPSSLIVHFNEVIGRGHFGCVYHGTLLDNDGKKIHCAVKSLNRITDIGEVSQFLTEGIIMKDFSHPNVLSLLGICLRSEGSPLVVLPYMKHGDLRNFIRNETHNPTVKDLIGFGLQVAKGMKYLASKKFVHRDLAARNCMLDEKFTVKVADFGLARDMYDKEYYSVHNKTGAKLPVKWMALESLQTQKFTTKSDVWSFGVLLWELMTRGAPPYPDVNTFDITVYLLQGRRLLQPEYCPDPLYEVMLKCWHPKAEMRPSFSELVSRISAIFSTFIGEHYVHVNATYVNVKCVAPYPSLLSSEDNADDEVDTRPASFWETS

Substance	Activity (c-Met phosphorylation level by ELISA) (c-Met [1])	c-Met phosphorylation (c-Met [1])	ka (c-Met-Fc)	kd (c-Met-Fc)	Cell growth (human Hcc-827 cells)	Binding to c-Met expressing cells [2]	other results
D4-3scr-fluorescein: Fluorescein-modified c-Met-unbinding peptide ({CH2CO}-YERVNHLFRNQTWDRCGK(fluorescein); thioether N-16 (inferred)) [reference compound]						does not bind	
D4-3-fluorescein: Fluorescein-modified D4-3 peptide, fluorescein on the side chain of C-terminal lysine ({CH2CO}-[dY]RQFNRRTHEVWNLDCGK(fluorescein); thioether N-16)						colocalized with and bind to	
D4-3NMe-fluorescein: Fluorescein-modified N-methylated D4-3 peptide ({CH2CO}-[dY]RQFNRRTHEVWNLDCGK(fluorescein); thioether N-16; also: two amino acids N-methylated (N6 + N16))						colocalized with and bind to	
L5-2 BMH: dimeric peptide: two L5-2 macrocycles linked through C-terminal Cys by BMH linker ({CH2CO}-YISWNEFNSPNWRFITCG[βAla]C-NH2; thioether N-17; not fully specified (residue 20); also: dimer: two copies joined by BMH, linker at 20 via BMH, other end not in the chain)	Low	Promote	0.083 10^6 M^−1s^−1	0.054 10^−2 s^−1	Activate		
HGF: recombinant human HGF protein, natural ligand of c-Met, control							Phosphorylation of c-Met, Gab1, Akt, and Erk proteins (western blotting) [3]: promote phosphorylation; Autophosphorylation of c-Met (Phospho-RTK array) (c-Met [4]): autophosphorylation is induced
D4-3NMe Bis-MAL-PEG11: dimeric peptide: two D4-3NMe macrocycles linked through C-terminal Cys by Bis-MAL-PEG11 linker ({CH2CO}-[dY]RQFNRRTHEVWNLDCGC; thioether N-16; not fully specified (residue 18); also: two amino acids N-methylated (N6 + N16), dimer: two D4-3NMe macrocycles linked through C-terminal Cys by Bis-MAL-PEG11)	High	Promote	0.49 10^6 M^−1s^−1	0.040 10^−2 s^−1			Cell migration (human HuCCT1 cells): Activate

Continued, in another order:

Activity (c-Met phosphorylation level by ELISA) (c-Met [1])	c-Met phosphorylation (c-Met [1])	ka (c-Met-Fc)	kd (c-Met-Fc)	Substance	Cell growth (human Hcc-827 cells)	Binding to c-Met expressing cells [2]	other results
High	Promote	0.046 10^6 M^−1s^−1	0.055 10^−2 s^−1	D5-4 BMH: dimeric peptide: two D5-4 macrocycles linked through C-terminal Cys by BMH linker (peptide 1 {CH2CO}-[dY]WYYAWDQTYKAFPCG; peptide 2 {CH2CO}-[dY]WYYAWDQTYKAFPCG; thioether I:N-I:15, II:N-II:15; not fully specified (C-terminus); also: dimer: two chains joined by BMH through an added C-terminal Cys not in the letters)	Activate		
Low	Promote	2.0 10^6 M^−1s^−1	0.091 10^−2 s^−1	D4-3 BMH: dimeric peptide: two D4-3 macrocycles linked through C-terminal Cys by BMH linker ({CH2CO}-[dY]RQFNRRTHEVWNLDCGC; thioether N-16; not fully specified (residue 18); also: dimer: two copies joined by BMH, linker at 18 via BMH, other end not in the chain)	Activate		
No	Not promote			D4-3scr BMH: dimer of the negative control peptide D4-3scr with BMH linker ({CH2CO}-YERVNHLFRNQTWDRCGC; thioether N-16 (inferred); also: dimer of D4-3scr with BMH linker) [reference compound]			Cell migration (human HuCCT1 cells): Not activate; KD (c-Met-Fc): Not binding

From patent US9994616B2, “c-Met protein agonist” (The University of Tokyo, priority 2013, dated 2018)
